Data on 4 molecules can be found in publication PMC11032371 (Cell Death Discovery, 2024).

Data set [1] concerns the molecule itself. Briefly: SEC; analytical size exclusion, Superose 12 10/300; 50 mM HEPES pH 8.5, 150 mM NaCl, 1 mM DTT, 0.5% Triton X-100.
Data set [2] addresses T1, M1-diUb (UniProt P0CG48 1-76; P0CG48 1-76).
T1 construct: ubiquitin, distal unit of M1-linked (linear) diUb; ubiquitin, proximal unit of M1-linked (linear) diUb; also called M1-linked diUb; linear diUb
Briefly: ITC; 293 K; 50 mM HEPES pH 7.4, 50 mM NaCl, 0.5 mM TCEP; cell 50–100 μM, syringe usually 10-fold; 20 injections of 2 μl; averages of at least two experiments; which partner was in the syringe not stated. The conditions noted are these: both partners purified.

Data set [3] addresses T2, monoUb (UniProt P0CG48 1-76).
T2 construct: ubiquitin; 15N-labelled in some NMR titrations; also called ubiquitin
The data set is described as above. The conditions noted are these: both partners purified.

Data set [4] addresses T1, M1-diUb. Briefly: SPR; Biacore S200; TF-N4BP1 fragment amine-coupled to a CM5 chip, mono- and diUb flowed over at 30 μl/min; HBS-P+ (10 mM HEPES pH 7.4, 150 mM NaCl, 0.05% Tween 20), 25 °C; KD from plateau levels. The conditions noted are these: both partners purified.
Data set [5] deals with T2, monoUb. Described as above. The conditions noted are these: both partners purified.

B1: N4BP1 (850–893) (domain or fragment, mouse, UniProt Q6A037 850-893, looked up)
chain: ETSELREALLKIFPDSEQKLKIDQILAAHPYMKDLNALSALVLD
notes: His-tag removed with 3C protease for ITC and NMR; 15N- or 15N/13C-labelled for NMR; also called isolated CUE domain; N4BP1 CUE domain; not shown: His-tag, N-terminal, cleaved
Consider B1, for which the binding result in data set [1] is given as “binds”. Further, in data set [2], the dH was -5.3 kcal/mol and the “stoichiometry N” value amounted to 2.16. In addition, in data set [3], binding was characterised by a dissociation constant (Kd) of 27.5 ± 5.6 µM, the dH was -5.2 kcal/mol and the “stoichiometry N” value is 0.915.

B2: N4BP1 (613-774), from pCold-I, His-tagged (domain or fragment, mouse, UniProt Q6A037 613-774, looked up)
chain: ADLKHIVIDGSNVAITHGLKKFFSCRGIAIAVEYFWKLGNRNITVFVPQWRTRRDPNITEQHFLTQLQELGILSLTPARMVFGERIASHDDRFLLHLADKTGGIIVTNDNFREFVTESVSWREIITKRLLQYTFVGDIFMVPDDPLGRNGPRLEEFLRKEAF
notes: N4BP1, mouse, RNase domain, residues 613-774; source: E. coli BL21, purified
Turning to B2, the binding result in data set [1] is reported as “binds”.

B3: TF-N4BP1 (613–893) (domain or fragment, mouse, UniProt Q6A037 613-893, looked up)
chain: ADLKHIVIDGSNVAITHGLKKFFSCRGIAIAVEYFWKLGNRNITVFVPQWRTRRDPNITEQHFLTQLQELGILSLTPARMVFGERIASHDDRFLLHLADKTGGIIVTNDNFREFVTESVSWREIITKRLLQYTFVGDIFMVPDDPLGRNGPRLEEFLRKEAFLRHMQPLLNALPSVGTFDPGFRSPSTQVANNSHQPPPRIQTSSSPWLPQQSHFTALATLPSMQQNPPLPAQRSSAETSELREALLKIFPDSEQKLKIDQILAAHPYMKDLNALSALVLD
notes: also called dimeric N4BP1
For the molecule B3, the dissociation constant Kd in data set [4] came out at 430 nM; in data set [5] it was 84.9 µM.

B4: N4BP1 (613–893), from pCold-I, His-tagged (domain or fragment, mouse, UniProt Q6A037 613-893, looked up)
chain: B3 chain
notes: source: E. coli BL21, purified
In the case of B4, the binding result in data set [1] was “binds”.
